B1: TPP-1290 PD138G7(G109D)-6GS-CD137A-6GS-HSA2 (bispecific antibody)
chain: EVQLVESGGGVVRPGGSLRLSCAASGFTFDDYAMSWVRQAPGKGLEWVSGITWNGGSTGYADSVKDRFTISRDNAKNSLYLQMNSLRAEDTALYYCVRDKYSYAWSYDDFDIWGQGTMVTVSSGGGGSGGGGSGGGGSGGGGSGGGGSGGGGSEVQLVESGGGLVQPGGSLRLSCAASGFTLSNYWMNWVRQAPGKGLEWVANINQDGSERYYVDSVKGRFTISRDNAKNSLYLQMNSLRAEDTAVYYCARGGEGYGVDHYGLDVSGQGTTVTVSSGGGGSGGGGSGGGGSGGGGSGGGGSGGGGSEVQLVESGGGLVKPGGSLRLSCAASGFTFSNYNMNWVRQAPGKGLEWVSSISSAGTHIYYADSVKGRFTISRDNAKNSLYLQMNSLRAEDTAVYYCARDPHSTGWYKDFDYWGQGTLVTVSS
B2: TPP-1246 CD137A-6GS-HSA2-6GS-PD138G7(G109D) (bispecific antibody)
chain: EVQLVESGGGLVQPGGSLRLSCAASGFTLSNYWMNWVRQAPGKGLEWVANINQDGSERYYVDSVKGRFTISRDNAKNSLYLQMNSLRAEDTAVYYCARGGEGYGVDHYGLDVSGQGTTVTVSSGGGGSGGGGSGGGGSGGGGSGGGGSGGGGSEVQLVESGGGLVKPGGSLRLSCAASGFTFSNYNMNWVRQAPGKGLEWVSSISSAGTHIYYADSVKGRFTISRDNAKNSLYLQMNSLRAEDTAVYYCARDPHSTGWYKDFDYWGQGTLVTVSSGGGGSGGGGSGGGGSGGGGSGGGGSGGGGSEVQLVESGGGVVRPGGSLRLSCAASGFTFDDYAMSWVRQAPGKGLEWVSGITWNGGSTGYADSVKDRFTISRDNAKNSLYLQMNSLRAEDTALYYCVRDKYSYAWSYDDFDIWGQGTMVTVSS
B3: TPP-1439 PD138G7(G109D)-6GS-PD138G7(G109D)-6GS-CD137A-7-6GS-HSA2 (bispecific antibody)
chain: EVQLVESGGGVVRPGGSLRLSCAASGFTFDDYAMSWVRQAPGKGLEWVSGITWNGGSTGYADSVKDRFTISRDNAKNSLYLQMNSLRAEDTALYYCVRDKYSYAWSYDDFDIWGQGTMVTVSSGGGGSGGGGSGGGGSGGGGSGGGGSGGGGSEVQLVESGGGVVRPGGSLRLSCAASGFTFDDYAMSWVRQAPGKGLEWVSGITWNGGSTGYADSVKDRFTISRDNAKNSLYLQMNSLRAEDTALYYCVRDKYSYAWSYDDFDIWGQGTMVTVSSGGGGSGGGGSGGGGSGGGGSGGGGSGGGGSEVQLVESGGGLVQPGGSLRLSCAASGFTLSNYWMNWVRQAPGKGLEWVANINQDGSERYYVDSVKGRFTISRDNAKNSLYLQMNSLRAEDTAVYYCARGGEGYGVDHYGLDVSGQGTTVTVSSGGGGSGGGGSGGGGSGGGGSGGGGSGGGGSEVQLVESGGGLVKPGGSLRLSCAASGFTFSNYNMNWVRQAPGKGLEWVSSISSAGTHIYYADSVKGRFTISRDNAKNSLYLQMNSLRAEDTAVYYCARDPHSTGWYKDFDYWGQGTLVTVSS
B4: TPP-1410 PD138G7(G109D)-1GS-CD137A-6GS-HSA2 (bispecific antibody)
chain: EVQLVESGGGVVRPGGSLRLSCAASGFTFDDYAMSWVRQAPGKGLEWVSGITWNGGSTGYADSVKDRFTISRDNAKNSLYLQMNSLRAEDTALYYCVRDKYSYAWSYDDFDIWGQGTMVTVSSGGGGSEVQLVESGGGLVQPGGSLRLSCAASGFTLSNYWMNWVRQAPGKGLEWVANINQDGSERYYVDSVKGRFTISRDNAKNSLYLQMNSLRAEDTAVYYCARGGEGYGVDHYGLDVSGQGTTVTVSSGGGGSGGGGSGGGGSGGGGSGGGGSGGGGSEVQLVESGGGLVKPGGSLRLSCAASGFTFSNYNMNWVRQAPGKGLEWVSSISSAGTHIYYADSVKGRFTISRDNAKNSLYLQMNSLRAEDTAVYYCARDPHSTGWYKDFDYWGQGTLVTVSS
B5: TPP-1409 CD137A-1GS-HSA2-1GS-PD138G7(G109D) (bispecific antibody)
chain: EVQLVESGGGLVQPGGSLRLSCAASGFTLSNYWMNWVRQAPGKGLEWVANINQDGSERYYVDSVKGRFTISRDNAKNSLYLQMNSLRAEDTAVYYCARGGEGYGVDHYGLDVSGQGTTVTVSSGGGGSEVQLVESGGGLVKPGGSLRLSCAASGFTFSNYNMNWVRQAPGKGLEWVSSISSAGTHIYYADSVKGRFTISRDNAKNSLYLQMNSLRAEDTAVYYCARDPHSTGWYKDFDYWGQGTLVTVSSGGGGSEVQLVESGGGVVRPGGSLRLSCAASGFTFDDYAMSWVRQAPGKGLEWVSGITWNGGSTGYADSVKDRFTISRDNAKNSLYLQMNSLRAEDTALYYCVRDKYSYAWSYDDFDIWGQGTMVTVSS
B6: TPP-1438 CD137A-6GS-HSA2-6GS-PD138G7(G109D)-6GS-PD138G7(G109D) (bispecific antibody)
chain: EVQLVESGGGLVQPGGSLRLSCAASGFTLSNYWMNWVRQAPGKGLEWVANINQDGSERYYVDSVKGRFTISRDNAKNSLYLQMNSLRAEDTAVYYCARGGEGYGVDHYGLDVSGQGTTVTVSSGGGGSGGGGSGGGGSGGGGSGGGGSGGGGSEVQLVESGGGLVKPGGSLRLSCAASGFTFSNYNMNWVRQAPGKGLEWVSSISSAGTHIYYADSVKGRFTISRDNAKNSLYLQMNSLRAEDTAVYYCARDPHSTGWYKDFDYWGQGTLVTVSSGGGGSGGGGSGGGGSGGGGSGGGGSGGGGSEVQLVESGGGVVRPGGSLRLSCAASGFTFDDYAMSWVRQAPGKGLEWVSGITWNGGSTGYADSVKDRFTISRDNAKNSLYLQMNSLRAEDTALYYCVRDKYSYAWSYDDFDIWGQGTMVTVSSGGGGSGGGGSGGGGSGGGGSGGGGSGGGGSEVQLVESGGGVVRPGGSLRLSCAASGFTFDDYAMSWVRQAPGKGLEWVSGITWNGGSTGYADSVKDRFTISRDNAKNSLYLQMNSLRAEDTALYYCVRDKYSYAWSYDDFDIWGQGTMVTVSS

Target: human CD137 and human PD-1 on stimulated primary human T cells (human)
Test: flow cytometry, labelled VH on activated CD137+ human T cells (human control), n = 1

Row | Binder | EC50 [nM]
1 | B1 | 6.87
2 | B2 | 3.75

Target: CD137 and PD1 individually fused to subunits of NanoLuc luciferase, on the same cell (NanoBiT assay cells)
Test: NanoBiT cell based protein interaction assay, luminescence on bridging of CD137 and PD1 on one cell

Row | Binder | EC50 [nM]
3 | B1 | 0.0515
4 | B3 | 0.148
5 | B4 | 0.0532
6 | B2 | 0.0251
7 | B5 | 0.0259
8 | B6 | 0.105

Target: human CD137 and human PD-1 on stimulated primary human T cells (human)
Test: flow cytometry, AF488-labelled VH on pre-stimulated human CD8+ cells, average of 2 donors

Row | Binder | EC50 [nM]
9 | B1 | 1.49
10 | B2 | 2.22

Target: cynomolgus CD137 and cynomolgus PD-1 on activated CD137+ cynomolgus T cells (cynomolgus) (UniProt A9YYE7)
Test: flow cytometry, labelled VH on activated CD137+ cynomolgus T cells, n = 3

Row | Binder | EC50 [nM]
11 | B1 | 7.17
12 | B2 | 3.63

Reference: patent US20220220215A1
